# Data: paper PMC10441460, “Identification of Selective ATP-Competitive CMG Helicase Inhibitors for Cancer Intervention that Disrupt CMG-Replisome Function” (Research Square, 2023)
# Assays:
# [1] = tested on: T1, Nc1ncnc2c1ncn2[C@@H]1O[C@H](COP(=O)(O)OP(=O)(O)OP(=O)(O)O)[C@@H](O)[C@H]1O; assay: helicase kinetics with increasing ATP (Km); format: biochemical, Homo sapiens; details: Mg2+ MCM ATPase clefts formed between adjacent MCM subunit pairs
# T1 construct: 11-subunit hCMG holoenzyme co-expressed by baculovirus in insect cells (Cdc45, Mcm2-7, GINS); with Cdc45 and GINS (Sld5, Psf1, Psf2, Psf3)
# [2] = tested on: T2, human CMG helicase (Cdc45-MCM-GINS; Mcm2-7 ATPase core); assay: DNA fork-unwinding helicase assay, dose-dependent suppression; format: biochemical
# T2 construct: 11-subunit hCMG holoenzyme co-expressed by baculovirus in insect cells (Cdc45, Mcm2-7, GINS); with Cdc45 and GINS (Sld5, Psf1, Psf2, Psf3)
Molecule,Km [1] [µM],"DNA fork-unwinding helicase assay, dose-dependent suppression [2]"
human CMG helicase (Cdc45-MCM-GINS; Mcm2-7 ATPase core) (Homo sapiens),690,–
Nc1ncnc2c1ncn2[C@@H]1O[C@H](COP(=O)(O)OP(=O)(O)OP(O)(O)=S)[C@@H](O)[C@H]1O [ATP-γ-S],–,dose-dependent suppression of fork-unwinding activity in the presence of slow-hydrolyzable ATP-γ-S
